Target: Light chain of BDD-Factor VIII (FVIII: C light chain) expressed in Pichia pastoris GS115 (Homo sapiens (Human)) (UniProt P00451)
Assay: cell-based or functional assay

Sequence of Light chain of BDD-Factor VIII (FVIII: C light chain) expressed in Pichia pastoris GS115 (Homo sapiens (Human)) (P00451 other isoform, or with tags, fused parts or gaps limits assumed): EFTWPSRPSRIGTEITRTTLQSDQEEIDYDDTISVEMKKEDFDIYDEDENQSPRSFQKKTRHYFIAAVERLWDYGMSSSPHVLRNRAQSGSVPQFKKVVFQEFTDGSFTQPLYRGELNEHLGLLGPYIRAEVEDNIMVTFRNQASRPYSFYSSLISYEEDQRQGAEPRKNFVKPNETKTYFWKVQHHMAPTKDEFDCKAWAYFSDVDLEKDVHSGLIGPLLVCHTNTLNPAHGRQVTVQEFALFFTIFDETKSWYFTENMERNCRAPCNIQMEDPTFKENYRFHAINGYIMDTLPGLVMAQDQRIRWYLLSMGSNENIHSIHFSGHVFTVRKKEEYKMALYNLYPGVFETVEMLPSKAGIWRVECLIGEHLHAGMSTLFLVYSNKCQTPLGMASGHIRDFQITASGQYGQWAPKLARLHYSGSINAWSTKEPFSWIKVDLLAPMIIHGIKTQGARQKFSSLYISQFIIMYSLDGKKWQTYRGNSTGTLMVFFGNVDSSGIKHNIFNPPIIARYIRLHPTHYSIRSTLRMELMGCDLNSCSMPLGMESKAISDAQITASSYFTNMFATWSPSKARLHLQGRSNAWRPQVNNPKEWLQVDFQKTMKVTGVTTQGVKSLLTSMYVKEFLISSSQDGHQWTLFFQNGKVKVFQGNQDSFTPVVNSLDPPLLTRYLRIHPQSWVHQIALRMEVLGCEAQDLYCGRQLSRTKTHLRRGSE

Work on “Heavy chain of BDD-Factor VIII (FVIII: C heavy chain, A1 and A2 domains) expressed in Pichia pastoris GS115 (from UniProt P00451 20-759)” yielded a Specific Activity[IU/mg], chromogenic assay of 7660 IU/mg and a Specific Activity[IU/mg], one stage clotting assay of 132 IU/mg.
